The values below come from the supplement of paper PMC9170038.

Series [1] deals with MS2 coat protein. Description: apparent KD of MS2 coat protein, switch ON state; designed switch direction (-1 OFF switch, 1 ON switch): -1; higher = weaker reporter binding. Conditions: FMN input: 0 or 200 uM; Eterna round: R93 (includes R88 designs). The essentials: (§1)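 The buffer was 100 mM Tris-HCl pH 7.5 with 80 mM KCl and 4 mM MgCl2, used without or with constant ligand. In it, RNA switches transcribed on-chip from Illumina sequencing clusters were titrated with SNAP-549-labelled MS2 coat protein in twofold steps from 0.7 or 1.5 nM to 3 µM. Apparent KD for each design is the median of its normalised cluster binding-curve fits.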

The test system of series [2] is MS2 coat protein. The experiment in a line: apparent KD of MS2 coat protein, switch OFF state (with FMN for OFF switches, without FMN for ON switches); designed switch direction (-1 OFF switch, 1 ON switch): -1; higher = weaker reporter binding. Conditions: FMN input: 0 or 200 uM; Eterna round: R93 (includes R88 designs). In short, it runs like this: as §1

For the sequence “AAAGGACGAGGAUAUACAUGAGGAUCACCCAUGUAAAGGGCAUAAAAAAAGAACUUAUGUAGAAGGCGUCCAAA [Mat - Exclusion 3 - Eli mod - D95]”, the “apparent KD of MS2 coat protein” value in the series with MS2 coat protein [1] came to 35 nM; in the series on MS2 coat protein [2] it was 26.8 nM.

With “AAAGGAUCAGGAUAUGUGUGGAAAAAGUGUAUUCAAAAAAAACAUGAGGAUCACCCAUGUAGAAGGGAUCCAAA [Mod of 2Normal (20/19) by Nando, Round 1]”, the “apparent KD of MS2 coat protein” value in the series with MS2 coat protein [1] was 298 nM; in the series with MS2 coat protein [2], 397 nM.

Regarding “AAAGGGUCAGGAUAUCGAUUAAUAAUAAAAUAAAUAAAGAUCGAGAAGGGACAUGAGGAUCACCCAUGUAUAAA [May 77]”, the “apparent KD of MS2 coat protein” value in the series with MS2 coat protein [1] was found to be 45.9 nM; in the series on MS2 coat protein [2], 54.6 nM.

“AAAGGGUCAGGAUAUUGAUUAAUAAUAAAAUAAAUAAAGAUCAAGAAGGGACAUGAGGAUCACCCAUGUAUAAA [May 78]”: the results for the “apparent KD of MS2 coat protein” value with MS2 coat protein [1] and in the series on MS2 coat protein [2] were 40.5 nM and 63 nM, respectively.

“AAAGUACGAGGAUAUACAUAGAUACAGAUACAUGUAGACGUACAUGAGGAUCACCCAUGUAGAAGGCGUACAUA [Mat - Same state - Mayanna Mod - D115]”: the “apparent KD of MS2 coat protein” value in the series with MS2 coat protein [1] is 154 nM; in the series with MS2 coat protein [2], 74.7 nM.

“AAAGUGUCAGGAUAUGCUGCUCGUCACGAAAGUGAUGAGUAGCAGAAGGGACAUGAGGAUCACCCAUGUAAAGA [Exclusion 4.1d (Exclusion4-cac2 - mutated U at 5 and G at 4)]”: the “apparent KD of MS2 coat protein” value in the series on MS2 coat protein [1] came to 110 nM; with MS2 coat protein [2], 205 nM.

Regarding “AAAGUGUGAGGAUAUGCGAAAGGACACGAAAGUGACAAAGAGCAGAAGGUACAUGAGGAUCACCCAUGUAAAAA [milkweed 19]”, the results for the “apparent KD of MS2 coat protein” value in the series on MS2 coat protein [1] and in the series with MS2 coat protein [2] were 27.2 nM and 20.4 nM, respectively.

As for “AAAUAGCAAGGAUAUACAUGAGGAUCACCCAUGUAAAAAUGGAAAGUAAUAAAAUAAAGUAGAAGGUGCAAAUA [Ex 3 Tesla 3]”, the “apparent KD of MS2 coat protein” value was 26.9 nM in the series on MS2 coat protein [1] and 37 nM in the series with MS2 coat protein [2].

Consider “AAAUAGCAAGGAUAUACAUGAGGAUCACCCAUGUGAACAAGGUAUGGAAUAGAAUAGAGUAGAAGGUGCAAAUA [Mod 2 of Ex 3 Tesla 8 - Jieux - Exclusion 3]”, for which the “apparent KD of MS2 coat protein” value came out at 31.3 nM with MS2 coat protein [1] and 43.4 nM with MS2 coat protein [2].

As for “AAAUAGUUAGGAUAUACAUGAGGAUCACCCAUGUGGACUUAUGGCGAGUAAUUUAGUGGUAGAAGGGACUAAAA [EX2 Malc#29]”, the “apparent KD of MS2 coat protein” value in the series on MS2 coat protein [1] came out at 46.2 nM; with MS2 coat protein [2] it was 47 nM.

On to “AAAUGCUGAGGAUAUACAUGAGGAUCACCCAUGUAAAAUAAAUAAUGGGUGUAAACGUGUAGAAGGCAGCAUAA [Exclusion 3.14d (FMN+ favored )]”, for which the “apparent KD of MS2 coat protein” value stood at 33.8 nM in the series with MS2 coat protein [1] and 16.8 nM in the series on MS2 coat protein [2].

In the case of “AAAUGCUGAGGAUAUACAUGAGGAUCACCCAUGUGAAAUAAAAAAUGUGUGUAAUCGUGUAGAAGGCAGCAUAA [Exclusion 3.13 (FMN+ favored more)]”, the entries for the “apparent KD of MS2 coat protein” value in the series on MS2 coat protein [1] and in the series with MS2 coat protein [2] were 21.6 nM and 18.1 nM, respectively.

“AAAUUGUCAGGAUAUCGUAUAACUCUAAAAUAGAGGAGAUACGAGAAGGGACAUGAGGAUCACCCAUGUAAAAC [May 87]”: the “apparent KD of MS2 coat protein” value was 61.4 nM in the series on MS2 coat protein [1] and 57.2 nM in the series on MS2 coat protein [2].

Take “AAAUUGUCAGGAUAUCUGGAUAGGAAAAAGAAAACCUAUCCAGAGAAGGGACAUGAGGAUCACCCAUGUAAAAA [JL cataway mod 1]”: the “apparent KD of MS2 coat protein” value was 81.1 nM in the series on MS2 coat protein [1] and 107 nM with MS2 coat protein [2].

Take “AACAAACAUGAGGAUCACCCAUGUCAGGAUAUCGAAACAACAAACAACAAACAACAAACGAGAAGGGACAACAA [e1]”: the “apparent KD of MS2 coat protein” value in the series on MS2 coat protein [1] was determined as 19.2 nM; with MS2 coat protein [2] it was 23.8 nM.

With “AACAAACAUGAGGAUCACCCAUGUCAGGAUAUGCACAAACAAACAAACAAACAAGCAAGCAGAAGGGACACAAC [Amethyst 89]”, the “apparent KD of MS2 coat protein” value in the series with MS2 coat protein [1] turned out to be 13.7 nM; in the series with MS2 coat protein [2], 27.6 nM.

Consider “AACAAGACAGGAUAUACAUGAGGAUCACCCAUGUGAGAAUUAAGUGGCGUAACACAAAGUAGAAGGGUCAUGGA [Ruby 4]”, for which the “apparent KD of MS2 coat protein” value with MS2 coat protein [1] was 38 nM; with MS2 coat protein [2], 56.2 nM.

As to “AACAAGUGAGGAUAUGAAAAUACAACAAACAAACAACUACAUCAGAAGGCACAUGAGGAUCACCCAUGUAAAAC [JR_Exc004_Sub1204]”, the entries for the “apparent KD of MS2 coat protein” value in the series on MS2 coat protein [1] and with MS2 coat protein [2] were 19 nM and 20.7 nM, respectively.

Take “AACACACAUGAGGAUCACCCAUGUAAGGAUAUGCGAGCAAGAAGAAAGAACAGAAAAAGCAGAAGGUACACACA [Amethyst 75]”: the “apparent KD of MS2 coat protein” value amounted to 29.6 nM in the series on MS2 coat protein [1] and 29.5 nM in the series on MS2 coat protein [2].

In the case of “AACAGGUCAGGAUAUGUGGAAAAAAUAAAAAAAAUAAAAACACAGAAGGGACAUGAGGAUCACCCAUGUAAAUA [May 22]”, the “apparent KD of MS2 coat protein” value with MS2 coat protein [1] is 58 nM; in the series with MS2 coat protein [2] it was 114 nM.
